The target of this assay is human RANK, full length (expressed in or on cells) (human) (UniProt Q9Y6Q6). Description: cell-based or functional assay.

Data on 1 substance can be found in patent US7262274.

Sequence of UniProt Q9Y6Q6 (Q9Y6Q6 30-616 limits assumed): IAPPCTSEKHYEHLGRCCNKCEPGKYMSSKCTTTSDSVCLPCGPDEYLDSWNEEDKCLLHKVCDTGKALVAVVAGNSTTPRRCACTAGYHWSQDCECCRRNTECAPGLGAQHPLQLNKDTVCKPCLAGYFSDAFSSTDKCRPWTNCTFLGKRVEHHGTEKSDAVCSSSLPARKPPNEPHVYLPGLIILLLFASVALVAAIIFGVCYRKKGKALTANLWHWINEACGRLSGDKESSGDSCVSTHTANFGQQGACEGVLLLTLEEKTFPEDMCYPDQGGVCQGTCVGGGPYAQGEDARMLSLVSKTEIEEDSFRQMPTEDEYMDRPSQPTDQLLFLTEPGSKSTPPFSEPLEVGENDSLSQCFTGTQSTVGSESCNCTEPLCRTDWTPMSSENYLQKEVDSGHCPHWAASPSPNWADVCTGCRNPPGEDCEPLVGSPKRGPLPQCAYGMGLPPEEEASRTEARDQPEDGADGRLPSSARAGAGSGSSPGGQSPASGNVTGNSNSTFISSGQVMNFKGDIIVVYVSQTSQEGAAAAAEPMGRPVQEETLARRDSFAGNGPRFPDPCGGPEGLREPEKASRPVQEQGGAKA

On to “RANKL (species and construct not stated at the place of use) (ligand)”, for which the allo-stimulatory capacity of CD1a+ DC in a mixed lymphocyte reaction (MLR) was above 10 fold.
